This note sets out measurements from US20130288305A1.

Experiment in all cases: cell-based or functional assay
In assay [1] the target is FGFR2-IIIb N550K expressed on FDCP-1 cells (human), P21802.
Assay [2] has as its target FGFR2-IIIb S252W expressed on FDCP-1 cells (human), P21802.
For assay [3], the target named is wild type FGFR2-IIIb expressed on FDCP-1 cells (human), P21802.

B1: antibody 4B9 (antibody)
heavy: EVQLQQSGTVLARPGASVKMSCKTSGYTFTSYWMHWVKQRPGQGLEWIGAIYPGNSDTDYSQKFKGKATLTAVTSATTAYMELSSLTNEDSAVYYCSKFDYWGQGTTLTVSSAKTTPPSVYPLAPGSAAQTNSMVTLGCLVKGYFPEPVTVTWNSGSLSSGVHTFPAVLQSDLYTLSSSVTVPSSTWPSQTVTCNVAHPASSTKVDKKIVPRDCGCKPCICTVPEVSSVFIFPPKPKDVLTITLTPKVTCVVVDISKDDPEVQFSWFVDDVEVHTAQTQPREEQFNSTFRSVSELPIMHQDWLNGKEFKCRVNSAAFPAPIEKTISKTKGRPKAPQVYTIPPPKEQMAKDKVSLTCMITDFFPEDITVEWQWNGQPAENYKNTQPIMDTDGSYFVYSKLNVQKSNWEAGNTFTCSVLHEGLHNHHTEKSLSHSPGK
light: QIVLTQSPALMSASPGEKVTMTCSASSSVNYMYWYQQKPRSSPKPWIYLTSNLASGVPARFSGRGSGTSYSLTISSMEAEDAATYYCQQWSSNPYTFGGGTKLEIKRADAAPTVSIFPPSSEQLTSGGASVVCFLNNFYPRDINVKWKIDGSERQNGVLNSWTDQDSKDSTYSMSSTLTLTKDEYERHNSYTCEATHKTSTSPIVKSFNRNEC
In the case of B1, the results for the IC50 of inhibition of cell proliferation (MTT assay) in assay [1], in assay [2] and in assay [3] were 8.1 nM, 3 nM and 0.3 nM, respectively.
